Data: PMC10249625 (Biochemistry, 2023)

B1: Bcl-2 chimera (1–34 Bcl-2, 35–50 Bcl-XL, 93–207 Bcl-2) with a C-terminal 6His tag (domain or fragment)
chain: MAHAGRTGYDNREIVMKYIHYKLSQRGYEWDAGDDVEENRTEAPEGTESEPVVHLTLRQAGDDFSRRYRRDFAEMSSQLHLTPFTARGRFATVVEELFRDGVNWGRIVAFFEFGGVMCVESVNREMSPLVDNIALWMTEYLNRHLHTWIQDNGGWDAFVELYGPSMR
B2: Mcl-1 (172–327), untagged after thrombin cleavage of GST (domain or fragment, human (from the printed UniProt entry))
chain: GSGSDELYRQSLEIISRYLREQATGAKDTKPMGRSGATSRKALETLRRVGDGVQRNHETAFQGMLRKLDIKNEDDVKSLSRVMIHVFSDGVTNWGRIVTLISFGAFVAKHLKTINQESCIEPLAESITDVLVRTKRDWLVKQRGWDGFVEFFHVEDLEGG

Experiments:
[1] = target: hBIMEL (141–166) BH3 peptide (human); assay: native MS
[2] = target: hBIMEL (141–166) BH3 peptide (human); assay: HDX-MS

Row | Binder | binding result [1] | binding result [2]
1 | B1 | binds | –
2 | B2 | – | binds
